The record followed here is paper PMC4243253.

The test system of this data set is N[C@@H](CC(=O)c1ccccc1NC=O)C(=O)O. The data set is described as follows: purified protein. Conditions: 0.1 M sodium phosphate, pH 7.4, 20 μM ZnCl2, 25°C.

As a reminder, the Km is the substrate concentration at which the rate is half of its maximum. As a reminder, the Vmax is the top rate of the reaction or transport when substrate is in excess. In general, kcat refers to the number of substrate molecules converted per active site and unit of time at saturation. Usually kcat/Km stands for the second-order rate constant that governs catalysis at low substrate concentration. “PaKynB-His (Pseudomonas aeruginosa PAO1)”: the Km amounted to 0.98 ± 0.13 mM, the Vmax came to 0.148 µmol/min, the kcat was 114 s⁻¹ and the kcat/Km was found to be 116000 M⁻¹ s⁻¹.
